In paper doi:10.1101/2025.09.26.678488, “Dishevelled drives Wnt-stimulated disassembly of primary cilia through a unique PDZ-mediated binding mode with Daple and Girdin” (bioRxiv, 2025):
Positions count from the first letter of the chain named. No end group written: not given here. *: point of attachment. Lip = lipoyl, O=C(CCCC[C@@H]1CCSS1)*

Tests used:
[1] = target: T1, Lip-PDZ_(DVL2) (human, UniProt O14641 265-361); assay: ITC; 40 μM Lip-PDZ_(DVL2) in the cell, 1.00 mM Lip-PBM_(Daple) or 1.33 mM Lip-PBM_(FZD4) in the syringe; 25°C; 25 mM sodium phosphate pH 6.7, 150 mM NaCl; one set of binding sites; apparent KD; details: both partners purified
T1 construct: DVL2 (Dishevelled-2), human, PDZ domain, amino acids 265-361; also called His6x-Lip-PDZ; source: E. coli BL21-CodonPlus(DE3)-RIL, purified (Ni-NTA, SEC); not shown: Lipoyl (Lip), N-terminal, kept
T1 sequence (looked up): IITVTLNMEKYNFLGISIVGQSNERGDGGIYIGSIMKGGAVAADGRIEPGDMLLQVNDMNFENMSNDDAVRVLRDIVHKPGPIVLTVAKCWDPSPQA

[2] = target: T2, PDZ_(DVL2) V334E cleft mutant (NMR sample) (human, UniProt O14641 265-361, V334E); assay: NMR titration; 1H-15N fHSQC of 100 μM 15N-labelled PDZ_(DVL2) alone or with 150 μM (Daple, Girdin) or 300 μM (FZD4) Lip-tagged PBM peptide; 298 K; chemical shift perturbations and line broadening; details: both partners purified
T2 construct: DVL2 (Dishevelled-2), human, PDZ domain, amino acids 265-361, V334E; source: E. coli BL21-CodonPlus(DE3)-RIL, purified (Ni-NTA, SEC)
T2 sequence (looked up): T1 sequence (looked up) with V70E

B1: Lip-PBM_(Daple) (C-terminal eight residues of Daple tagged with Lipoyl) (peptide, UniProt Q9P219 2021-2028, looked up)
peptide: Lip-VWYEYGCV
notes: Daple, C-terminal eight residues; the last residue is printed as Val2028, so 2021 is worked out; printed residues: Trp2022, Glu2024, Tyr2025, Gly2026, Cys2027, Val2028; source: E. coli BL21-CodonPlus(DE3)-RIL, purified (Ni-NTA, SEC); not shown: Lipoyl (Lip), N-terminal, kept
Question: With B1 as the binder, how does the Kd [1] read?
Answer: The Kd was 9.1 µM.

Question: Does B1 bind [2]?
Answer: Result: binds
